The record followed here is US20030073111.

The target of the data set is GST-IκBα (1-62).

B1: IKKα-ΔCm (protein)
chain: MERPPGLRPGAGGPWEMRERLGTGGFGNVSLYQHRELDLKIAIKSCRLELSSKNRERWCHEIQIMKKLDHANVVKACDVPEELNFLINDVPLLAMEYCSGGDLRKLLNKPENCCGLKESQILSLLSDIGSGIRYLHENKIIHRDLKPENIVLQDVGGKTIHKIIDLGYAKDVDQGSLCTSFVGTLQYLAPELFENKPYTATVDYWSFGTMVFECIAGYRPFLHHLQPFTWHEKIKKKDPKCIFACEEMTGEVRFSSHLPQPNSLCSLIVEPMESWLQLMLNWDPQQRGGPIDLTLKQPRCFALMDHILNLKIVHILNMTSAKIISFLLPCDESLHSLQSRIERETGINTGSQELLSETGISLDPRKPASQCVLDGVRGCDSYMVYLFDKSKTVYEGPFASRSLSDCVNYIVQDSKIQLPIIQLRKVWAEAVHYVSGLKEDYSRLFQGQRAA
On to B1, for which the “immunoprecipitatable kinase activity towards GST-IκBα(1-62)” value was “TNF-α stimulation of HEK293 cells transfected with each IKKα/CHUK isoform resulted in an increase in immunoprecipitatable kinase activity towards GST-IκBα(1-62)”.

B2: IKKα/CHUK (protein)
chain: MERPPGLRPGAGGPWEMRERLGTGGFGNVSLYQHRELDLKIAIKSCRLELSSKNRERWCHEIQIMKKLDHANVVKACDVPEELNFLINDVPLLAMEYCSGGDLRKLLNKPENCCGLKESQILSLLSDIGSGIRYLHENKIIHRDLKPENIVLQDVGGKTIHKIIDLGYAKDVDQGSLCTSFVGTLQYLAPELFENKPYTATVDYWSFGTMVFECIAGYRPFLHHLQPFTWHEKIKKKDPKCIFACEEMTGEVRFSSHLPQPNSLCSLIVEPMESWLQLMLNWDPQQRGGPIDLTLKQPRCFALMDHILNLKIVHILNMTSAKIISFLLPCDESLHSLQSRIERETGINTGSQELLSETGISLDPRKPASQCVLDGVRGCDSYMVYLFDKSKTVYEGPFASRSLSDCVNYIVQDSKIQLPIIQLRKVWAEAVHYVSGLKEDYSRLFQGQRAAMLSLLRYNANLTKMKNTLISASQQLKAKLEFFRKSIQLDLERYSEQMTYGISSEKMLKAWKEMEEKAIHYSEVGVIGYLEDQIMSLHTEIMELQKSPYGRRQGDLMESLEQRAIDLYKQLKHRPPDHLYSDSTEMVKIIVHTVQSQDRVLKELFGHLSKLLGCKQKIIDLLPKVEVALSNIKEADNTVMFMQGKRQKEIWHLLKIACTQSSARSLVGSSLEGTVTPPVSAWLPPTLADREHPLTCVVTPQDGETLAQMIEENLNCLGHLSTIIREANEDQSSSLMSLDWSWLAE
Take B2: the “immunoprecipitatable kinase activity towards GST-IκBα(1-62)” value was “TNF-α stimulation of HEK293 cells transfected with each IKKα/CHUK isoform resulted in an increase in immunoprecipitatable kinase activity towards GST-IκBα(1-62)”.

B3: IKKα-ΔLH (protein)
chain: MERPPGLRPGAGGPWEMRERLGTGGFGNVSLYQHRELDLKIAIKSCRLELSSKNRERWCHEIQIMKKLDHANVVKACDVPEELNFLINDVPLLAMEYCSGGDLRKLLNKPENCCGLKESQILSLLSDIGSGIRYLHENKIIHRDLKPENIVLQDVGGKTIHKIIDLGYAKDVDQGSLCTSFVGTLQYLAPELFENKPYTATVDYWSFGTMVFECIAGYRPFLHHLQPFTWHEKIKKKDPKCIFACEEMTGEVRFSSHLPQPNSLCSLIVEPMESWLQLMLNWDPQQRGGPIDLTLKQPRCFALMDHILNLKIVHILNMTSAKIISFLLPCDESLHSLQSRIERETGINTGSQELLSETGISLDPRKPASQCVLDGVRGCDSYMVYLFDKSKTVYEGPFASRSLSDCVNYIVQDSKIQLPIIQLRKVWAEAVHYVSGLKEDYSRLFQGQRAAIFRKNVKSMERNGRKGHSLF
In the case of B3, the “immunoprecipitatable kinase activity towards GST-IκBα(1-62)” value is on record as “TNF-α stimulation of HEK293 cells transfected with each IKKα/CHUK isoform resulted in an increase in immunoprecipitatable kinase activity towards GST-IκBα(1-62)”.
